Test results published in patent US20260348974 (published 2026).

Target: human beta-tryptase (human, UniProt Q15661)
Assay: BLI steady state

human beta-tryptase, sequence (Q15661 31-275): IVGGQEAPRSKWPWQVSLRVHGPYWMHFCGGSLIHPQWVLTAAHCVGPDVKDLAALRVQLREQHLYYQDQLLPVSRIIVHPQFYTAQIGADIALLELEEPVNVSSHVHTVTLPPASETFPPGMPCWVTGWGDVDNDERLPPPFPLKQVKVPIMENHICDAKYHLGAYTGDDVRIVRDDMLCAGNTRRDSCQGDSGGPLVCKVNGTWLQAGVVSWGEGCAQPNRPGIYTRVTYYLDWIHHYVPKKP

Binder	Kd
E104.v1 6DS (LC.F116C.Q124C.HC.F126C.A141C) (antibody, V domains shown) VH: EVQLVESGPGCVKPSETLSLTCTVSRFSLIGYAITWIRQPPGKGLEWIGGISSAATTFYSSWAKSRVTISVDTSKNQFSLKLSSVTAADTAVYYCARDPRGYGAALDRLDLWGQGTCVTVSS VL: DIQMTQSPSSLSASVGDRVTITCQSIKSVYNNRLGWYQQKCGKAPKLLIYETSILTSGVPSRFSGSGSGTDFTLTISSLQCEDFATYYCAGGFDRSGDTTFGQGTKVEIKR	3.16 nM
E104.v1 4DS (antibody, V domains shown) VH: EVQLVESGPGCVKPSETLSLTCTVSRFSLIGYAITWIRQPPGKGLEWIGGISSAATTFYSSWAKSRVTISVDTSKNQFSLKLSSVTAADTAVYYCARDPRGYGAALDRLDLWGQGTCVTVSS VL: DIQMTQSPSSLSASVGDRVTITCQSIKSVYNNRLGWYQQKCGKAPKLLIYETSILTSGVPSRFSGSGSGTDFTLTISSLQCEDFATYYCAGGFDRSGDTTFGQGTKVEIKR	1.63 nM
